We go through eleven molecules from patent US20140170153A1 (Novo Nordisk, published 2014).

Numbering of substitutions follows the chain as printed. Numbers in names are those of the source. Where “and” joins values, the source holds several entries; their conditions need not be identical. Identical values can stand only once. Where only a bound is given, the exact number is not on record here.

Assay [1] has as its target T1, human recombinant IL-21 (expressed in E. coli as the mature peptide); residues 30-162 of SEQ ID NO: 1 with an … (human, UniProt Q9HBE4 30-162). Description: cell-based or functional assay.
Assay [2] addresses T1, human recombinant IL-21 (expressed in …). Description: cell-based or functional assay. The source holds these as a separate data set.
For assay [3] the target is unchanged. Kind of assay: crystal structure, Areaimol (CCP4). How it is done:
IL-21 (expressed in E. coli as the mature peptide; residues 30-162 of SEQ ID NO: 1 with an added N-terminal Methionine residue), in PBS buffer, pH 7.4 (4 tablets in 2 liter of water, GIBCO Cat. No. 18912-014 Invitrogen Corporation), and anti-IL-21 Fabs (comprising light chains and heavy chains corresponding to WT or mutants of SEQ ID No. 9 and 10, respectively, see example 6 and 14) formulated in PBS buffer, pH 7.4, were mixed in a 1:1 molar ratio. Crystals were grown with the sitting drop-technique with volumes according to Table 7. Total drop sizes were 0.2 or 0.3 μl, depending on the mixing ratio. Crystals were prepared for cryo-freezing by transferring of 3 μl of a cryo-solution, containing 75% of the precipitant solution and 25% glycerol, to the drop containing the crystal. Soakings were allowed for about one minute. The crystals were then fished into a MiTeGen MicroLoop™, flash frozen in liquid N2 and kept at a temperature of 100 K during data collection by a cryogenic N2 gas stream. Crystallographic data were collected at beam-line BL911-3 (Ursby et al., 2004) at MAX-lab, Lund, Sweden, to resolutions indicated in Table 8. Space group determination, integration and scaling of the data were made with the XDS software package (Kabsch, 2010). For the crystal complexes between hIL-21 and Fab56, Fab57 or Fab60, respectively, the Fab35/hIL-21 crystal structure were used as starting models for rigid body refinements in the Refmac5 software (Murshudov et al., 2011) of the CCP4 crystallography software suite (Bailey, 1994). Rigid body refinements were then followed by restrained crystallographic refinements, using the software programs Refmac5 and by computer graphics inspection of the electron density maps, model corrections and building using the Coot software program (Emsley et al., 2010). The procedure was cycled until no further significant improvements could be made to the model. Table 10, 11 and 13.
Table 9 show the calculated (by the software Areaimol (Lee & Richards, 1971, Saff & Kuijlaars, 1997)), average areas excluded in pair-wise interactions for the hIL-21/Fab56, hIL-21/Fab57, hIL-21/Fab59 and hIL-21/Fab60 complexes, respectively.

The target is the same in assay [4]. Kind of assay: SPR Biacore T200, calculated KD; Exp 2. Here is the method:
(§1) Anti-human Fc monoclonal antibodies from Biacore human Fc capture kit was immobilized onto flow cells of a CM4 sensor chip according to the manufacturer's instructions. The final immobilization level of capture antibody was approximately 2,500 RU in one experiment. […] Binding of hIL-21 protein was conducted by injecting analyte over all flow cells to allow for comparative analyses of binding to different captured anti-IL-21 antibodies relative to binding to the reference flow cell. hIL-21 protein was diluted serially 1:3 to 2-162 nM into running buffer, injected at 100 μl/min for 210 s and allowed to dissociate for 600 or 14000 s. The CM4 surface was regenerated after each injection cycle of analyte via two injections of 3M MgCl₂ at 50 μl/min. This regeneration step removed the anti-IL-21 antibody and any bound IL-21 from the immobilized capture antibody surface, and allowed for the subsequent binding of the next interaction sample pair.
(§2) No significant non-specific binding to the reference control surface was observed. Binding curves were processed by double referencing (subtraction of reference surface signals as well as blank buffer injections over captured anti-IL-21 antibodies). This allowed correction for instrument noise, bulk shift and drift during sample injections.

For assay [5] the target is unchanged. Kind of assay: SPR Biacore T200, 25 C; mAb captured by anti-human Fc, hIL-21 analyte, 1:1 Langmuir; Exp 1. Here is the method: as §1, §2
On the technique in general: Surface plasmon resonance follows binding to a sensor surface in real time, without labels.

The target is the same in assay [6]. Description: SPR Biacore T200, calculated KD; Exp 1. How it is done: as §1, §2
For assay [7] the target is unchanged. Description: SPR Biacore T200, 25 C; mAb captured by anti-human Fc, IL-21 analyte, 1:1 Langmuir. How it is done: (§3) Experiments were run at 25° C. and the samples were stored at 10° C. in the sample compartment. The signal (RU, response units) reported by the Biacore is directly correlated to the mass on the individual sensor chip surfaces in four serial flow cells.
Anti-human Fc monoclonal antibody from Biacore human Fc capture kit was immobilized onto flow cells of a CM4 sensor chip according to the manufacturer's instructions. The final immobilization level of capture antibody was approximately 2,000 RU in one experiment. […] Capture of the human anti-IL-21 antibody mAb37 was conducted by diluting the antibody to 0.1 μg/ml into running buffer (10 mM Hepes 0.3 M NaCl, 5 mM CaCl2, 0.05% surfactant P20, pH 8.0 containing 1 mg/ml BSA) and injected at 10 μl/min for 180 s in one of flow cells 2-4, creating a reference surface in flow cell 1 with only anti-Fc antibody immobilized. […] Binding of IL-21 protein was conducted by injecting analyte over all flow cells to allow for comparative analyses of binding to different captured anti-IL-21 antibodies relative to binding to the reference flow cell. IL-21 protein was diluted serially 1:3 to 0.2-54 nM into running buffer, injected at 100 μl/min for 210 s and allowed to dissociate for 600 or 14000 s. The CM4 surface was regenerated after each injection cycle of analyte via two injections of 3M MgCl₂ at 50 μl/min. This regeneration step removed the anti-IL-21 antibody and any bound IL-21 from the immobilized capture antibody surface, and allowed for the subsequent binding of the next interaction sample pair. […] No significant non-specific binding to the reference control surface was observed.

The target is the same in assay [8]. Description: SPR Biacore T200, 25 C; mAb captured by anti-human Fc, hIL-21 analyte, 1:1 Langmuir; Exp 2. How it is done:
as §1, §2

The target is the same in assay [9]. Description: SPR Biacore T200, 25 C; mAb captured by anti-human Fc, IL-21 analyte, 1:1 Langmuir. Here is the method: as §3
Anti-human Fc monoclonal antibody from Biacore human Fc capture kit was immobilized onto flow cells of a CM4 sensor chip according to the manufacturer's instructions. The final immobilization level of capture antibody was approximately 2,000 RU in one experiment. […] Capture of the human anti-IL-21 antibody mAb37 was conducted by diluting the antibody to 0.1 μg/ml into running buffer (10 mM Hepes 0.3 M NaCl, 5 mM CaCl2, 0.05% surfactant P20, pH 8.0 containing 1 mg/ml BSA) and injected at 10 μl/min for 180 s in one of flow cells 2-4, creating a reference surface in flow cell 1 with only anti-Fc antibody immobilized. […] Binding of IL-21 protein was conducted by injecting analyte over all flow cells to allow for comparative analyses of binding to different captured anti-IL-21 antibodies relative to binding to the reference flow cell. IL-21 protein was diluted serially 1:3 to 0.2-54 nM into running buffer, injected at 100 μl/min for 210 s and allowed to dissociate for 600 or 14000 s. The CM4 surface was regenerated after each injection cycle of analyte via two injections of 3M MgCl₂ at 50 μl/min. […]
The source holds these as a separate data set.

For assay [10] the target is unchanged. Description: SPR Biacore T200; mAb captured by anti-human Fc, hIL-21 analyte. How it is done: as §1, §2

T1 sequence (Q9HBE4 other isoform, or with tags, fused parts or gaps): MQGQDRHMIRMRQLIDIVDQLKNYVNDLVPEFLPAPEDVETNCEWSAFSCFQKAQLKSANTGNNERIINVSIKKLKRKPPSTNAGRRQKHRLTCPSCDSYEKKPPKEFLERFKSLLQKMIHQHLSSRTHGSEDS

B1: mAb63 (mAb37 variant, light chain R24K) (antibody, human IgG4 S228P, kappa, V domains shown)
VH: EVQLVESGGGLVKPGGSLRLSCAASGFIFSSYSMNWVRQAPGKGLEWVSSITSGSYYIHYADSVKGRFTISRDNAKNSLYLQMNSLRAEDTAVYYCVRERGWGYYGMDVWGQGTTVTVSS
VL: AIQLTQSPSSLSASVGDRVTITCKASQDIDSALAWYQQKPGKAPKILIHDASSLESGVPSRFSGSGSGTDFTLTISSLQPEDFATYYCQQFNSYPYTFGQGTKLEIKR
As for B1, in [1], the “Bioactivity as % of RM (mAb37), NK-92 assay (alamarBlue)” value (from here on “Bioactivity as % of RM (mAb37)”) was 92.1 % of RM (mAb37). Besides, in assay [2], the “IC50 (nM) in B cell proliferation assay, Donor 1” value (“IC50 (nM) … Donor 1” for short) worked out at 0.16 nM and the “IC50 (nM) in B cell proliferation assay, Donor 2” value (from here on “IC50 (nM) … Donor 2”) came out at 0.25 nM.

B2: Fab35 (Fab fragment of mAb14/mAb37) (Fab, V domains shown)
VH: B1 VH
VL: B1 VL with K24R
notes: also called anti-IL-21 Fab35
B2: the “Avr Area (average areas excluded in pairwise interactions)” value (“Avr Area” below) in assay [3] came to 1060 Å^2.

B3: mAb64 (mAb37 variant, light chain Q27N) (antibody, human IgG4 S228P, kappa, V domains shown)
VH: B1 VH
VL: B1 VL with K24R, Q27N
Regarding B3, the “Bioactivity as % of RM (mAb37)” value in assay [1] was 116 % of RM (mAb37). Moreover, in assay [2], the “IC50 (nM) … Donor 1” value turned out to be 0.8 nM and the “IC50 (nM) … Donor 2” value amounted to 0.74 nM.

B4: Fab59 (Fab35 with L, Q27N mutation; Fab fragment of mAb64) (Fab, V domains shown)
VH: B1 VH
VL: B1 VL with K24R, Q27N
notes: also called aIL-21 Fab59
B4: in assay [3], the “Avr Area” value amounted to 1170 Å^2.

B5: Fab57 (Fab35 with H: K65R; Fab fragment of mAb62) (Fab, V domains shown)
VH: B1 VH with K65R
VL: B1 VL with K24R
notes: also called aIL-21 Fab57
Consider B5, for which the “Avr Area” value in assay [3] was 1070 Å^2.

B6: Fab60 (Fab35 with L, D30E mutation; Fab fragment of mAb65) (Fab, V domains shown)
VH: B1 VH
VL: B1 VL with K24R, D30E
notes: also called aIL-21 Fab60
For the molecule B6, in assay [3], the “Avr Area” value was found to be 1100 Å^2.

B7: Fab56 (Fab35 with H: D62E mutation; Fab fragment of mAb61) (Fab, V domains shown)
VH: B1 VH with D62E
VL: B1 VL with K24R
notes: also called aIL-21 Fab56
For B7, the “Avr Area” value in assay [3] was 1070 Å^2.

B8: mAb37 (hinge stabilized S241P version of mAb14) (antibody, human IgG4 S228P, kappa)
heavy: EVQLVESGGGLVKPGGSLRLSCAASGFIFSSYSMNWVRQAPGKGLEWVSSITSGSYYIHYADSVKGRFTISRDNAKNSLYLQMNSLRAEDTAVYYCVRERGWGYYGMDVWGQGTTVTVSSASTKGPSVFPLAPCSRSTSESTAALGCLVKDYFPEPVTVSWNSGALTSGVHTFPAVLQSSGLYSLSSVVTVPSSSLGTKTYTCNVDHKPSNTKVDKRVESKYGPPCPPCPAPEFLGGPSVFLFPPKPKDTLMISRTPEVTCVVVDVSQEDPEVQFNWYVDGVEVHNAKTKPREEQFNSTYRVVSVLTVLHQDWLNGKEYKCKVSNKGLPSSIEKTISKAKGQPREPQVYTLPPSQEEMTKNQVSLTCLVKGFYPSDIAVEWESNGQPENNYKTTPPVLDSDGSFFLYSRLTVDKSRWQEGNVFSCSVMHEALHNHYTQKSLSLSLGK
light: AIQLTQSPSSLSASVGDRVTITCRASQDIDSALAWYQQKPGKAPKILIHDASSLESGVPSRFSGSGSGTDFTLTISSLQPEDFATYYCQQFNSYPYTFGQGTKLEIKRTVAAPSVFIFPPSDEQLKSGTASVVCLLNNFYPREAKVQWKVDNALQSGNSQESVTEQDSKDSTYSLSSTLTLSKADYEKHKVYACEVTHQGLSSPVTKSFNRGEC
notes: Human IgG4(S241P), kappa; recombinant from HEK293-6E; also called WT mAb37
B8: the Kd (usually the free concentration of one partner at which half of the binding sites on the other are occupied at equilibrium, for simple one-to-one binding) was under 0.015 nM in assay [4]; under 0.017 nM in assay [6]; 0.007 nM and 0.0075 nM and 0.011 nM in assay [7]; under 0.02 nM in assay [9]. In addition, the dissociation rate constant (koff) – broadly, the first-order rate constant of dissociation – in [5] is under 1e-05 s⁻¹; in assay [7], 4.5e-06 s⁻¹ and 6.4e-06 s⁻¹; in assay [8], under 1e-05 s⁻¹. In addition, the kon (in general, the second-order rate constant of association) in [5] is 570000 M⁻¹ s⁻¹ and 590000 M⁻¹ s⁻¹ and 580000 M⁻¹ s⁻¹; in assay [7], 640000 M⁻¹ s⁻¹ and 600000 M⁻¹ s⁻¹; in [8], 660000 M⁻¹ s⁻¹ and 620000 M⁻¹ s⁻¹. Also, the “IC50 (nM) … Donor 1” value in assay [2] came out at 0.14 nM. Further, the “IC50 (nM) … Donor 2” value in assay [2] turned out to be 0.18 nM.

B9: mAb61 (mAb37 variant, heavy chain D62E) (antibody, human IgG4 S228P, kappa, V domains shown)
VH: B1 VH with D62E
VL: B1 VL with K24R
notes: Human IgG4(S241P), kappa
For the molecule B9, in assay [4], the Kd was under 0.015 nM. Moreover, in assay [10], the Kd was under 0.02 nM. In assay [8], the koff was under 1e-05 s⁻¹; the on-rate constant (kon) is 660000 M⁻¹ s⁻¹ and 670000 M⁻¹ s⁻¹. Further, the “Bioactivity as % of RM (mAb37)” value in [1] was 86.2 % of RM (mAb37). Also, in [2], the “IC50 (nM) … Donor 1” value is 0.22 nM and the “IC50 (nM) … Donor 2” value amounted to 0.21 nM.

B10: mAb62 (mAb37 variant, heavy chain K65R) (antibody, human IgG4 S228P, kappa, V domains shown)
VH: B1 VH with K65R
VL: B1 VL with K24R
notes: Human IgG4(S241P), kappa
As to B10, in [5], the koff was under 1e-05 s⁻¹; the association rate constant (kon) is 560000 M⁻¹ s⁻¹ and 580000 M⁻¹ s⁻¹ and 600000 M⁻¹ s⁻¹. The dissociation constant Kd in assay [6] is under 0.017 nM. The Kd in assay [10] is under 0.02 nM. In addition, the “Bioactivity as % of RM (mAb37)” value in [1] was 73.2 % of RM (mAb37). For the same molecule, in [2], the “IC50 (nM) … Donor 2” value was 0.23 nM.

B11: mAb65 (mAb37 variant, light chain D30E) (antibody, human IgG4 S228P, kappa, V domains shown)
VH: B1 VH
VL: B1 VL with K24R, D30E
notes: Human IgG4(S241P), kappa
As to B11, in [5], the koff was under 1e-05 s⁻¹; the kon is 520000 M⁻¹ s⁻¹ and 530000 M⁻¹ s⁻¹ and 540000 M⁻¹ s⁻¹. Besides, the Kd in assay [6] was under 0.019 nM. Besides, the Kd in [10] is under 0.02 nM. In addition, the “Bioactivity as % of RM (mAb37)” value in [1] was 96.8 % of RM (mAb37). In addition, in [2], the “IC50 (nM) … Donor 1” value is 0.49 nM and the “IC50 (nM) … Donor 2” value came out at 0.19 nM.
